From article doi:10.1101/2021.07.09.451751v1 come the findings set out here.

Where a chain is given by its changes, count along the chain named. In names and notes the source's numbering stands.

Substrate in data set [1]: Nc1ncnc2c1ncn2[C@@H]1O[C@H](COP(=O)(O)OP(=O)(O)OP(=O)(O)O)[C@@H](O)[C@H]1O
Put plainly: phosphate release, BIOMOL Green. In kind it is biochemical, Homo sapiens. To be noted: 50 mM HEPES-KOH pH 7.5, 100 mM NaCl, 5 mM MgCl2, 37 °C.

Substrate in data set [2]: Nc1ncnc2c1ncn2[C@@H]1O[C@H](COP(=O)(O)OP(=O)(O)OP(=O)(O)O)[C@@H](O)[C@H]1O
In words: phosphate release, BIOMOL Green. The conditions noted are these: 50 mM HEPES-KOH pH 7.5, 100 mM NaCl, 5 mM MgCl2, 70 °C. The data set is classed as biochemical, Aquifex aeolicus.

For orientation: Km means the concentration of substrate that gives half-maximal velocity. Broadly, the kcat is the maximal rate divided by the concentration of active sites.

B1: ProS2-fused human PMS2 NTD (Homo sapiens; K91R) (protein)
chain: MERAESSSTEPAKAIKPIDRKSVHQICSGQVVLSLSTAVKELVENSLDAGATNIDLKLKDYGVDLIEVSDNGCGVEEENFEGLTLKHHTSRIQEFADLTQVETFGFRGEALSSLCALSDVTISTCHASAKVGTRLMFDHNGKIIQKTPYPRPRGTTVSVQQLFSTLPVRHKEFQRNIKKEYAKMVQVLHAYCIISAGIRVSCTNQLGQGKRQPVVCTGGSPSIKENIGSVFGQKQLQSLIPFVQLPPSDSVCEEYGLSCSDALHNLFYISGFISQCTHGVGRSSTDRQFFFINRRPCDPAKVCRLVNEVYHMYNRHQYPFVVLNISVDSECVDINVTPDKRQILLQEEKLLLAVLKTSLIGMFDS
Regarding B1, in data set [1], the Km is 300 ± 42 µM and the kcat is 0.000733 ± 2.83e-05 s⁻¹.

B2: ProS2-fused human PMS2 NTD (Homo sapiens; K340E) (protein)
chain: B1 chain with R91K, K340E
With B2, in data set [1], the Km came out at 80 ± 12 µM and the catalytic constant (kcat) was 0.000483 ± 3e-05 s⁻¹.

B3: ProS2-fused human PMS2 NTD (Homo sapiens) (protein)
chain: B1 chain with R91K
Regarding B3, in data set [1], the Km is 190 ± 39 µM and the kcat was 0.00617 ± 0.0003 s⁻¹.

B4: ProS2-fused human PMS2 NTD (Homo sapiens; K340A) (protein)
chain: B1 chain with R91K, K340A
As for B4, in data set [1], the Michaelis-Menten constant (Km) amounted to 160 ± 93 µM and the kcat stood at 0.00105 ± 0.000135 s⁻¹.

B5: histidine-tagged human MLH1 NTD (Homo sapiens; K311E) (protein)
chain: MSFVAGVIRRLDETVVNRIAAGEVIQRPANAIKEMIENCLDAKSTSIQVIVKEGGLKLIQIQDNGTGIRKEDLDIVCERFTTSKLQSFEDLASISTYGFRGEALASISHVAHVTITTKTADGKCAYRASYSDGKLKAPPKPCAGNQGTQITVEDLFYNIATRRKALKNPSEEYGKILEVVGRYSVHNAGISFSVKKQGETVADVRTLPNASTVDNIRSIFGNAVSRELIEIGCEDKTLAFKMNGYISNANYSVKKCIFLLFINHRLVESTSLRKAIETVYAAYLPKNTHPFLYLSLEISPQNVDVNVHPTEHEVHFLHEESILERVQQHIESKLLG
On to B5, for which, in data set [1], the Km was determined as 750 ± 130 µM and the kcat worked out at 0.000333 ± 5e-05 s⁻¹.

B6: histidine-tagged human MLH1 NTD (Homo sapiens) (protein)
chain: B5 chain with E311K
As for B6, in data set [1], the Km came to 790 ± 75 µM and the kcat stood at 0.00267 ± 0.000108 s⁻¹.

B7: full-length aqMutL (Aquifex aeolicus VF5) (protein)
chain: MFVKLLPPEVRKVIAAGEVIESPVDVVKELVENSLDAKATKVEVEIVKGGKRLIRVKDNGTGIHPEDVEKVVLQGATSKIETEKDLMNISTYGFRGEALYSISSVSKFKLRSRFFQEKEGKEIEVEAGNILGTRRVGMPVGTEVEVRDLFFNLPVRRKFLKKEDTERRKVLELIKEYALTNPEVEFTLFSEGRETLKLKKSSLKERVEEVFQTKTEELYAEREGITLRAFVSRNQRQGKYYVFINKRPIQNKNLKEFLRKVFGYKTLVVLYAELPPFMVDFNVHPKKKEVNILKERKFLELVRELAGKEKPIVDIPLSQPVKTYKPTYEILGQMDETFILVKDSEYLYFVDQHLLEERINYEKLKDENLACRISVKAGQKLSEEKIRELIKTWRNLENPHVCPHGRPIYYKIPLREIYEKVGRNY
With B7, in data set [2], the Km came to 360 ± 190 µM and the kcat worked out at 0.025 ± 0.0025 s⁻¹.

B8: full-length aqMutL (Aquifex aeolicus VF5; N282A) (protein)
chain: B7 chain with N282A
As for B8, in data set [2], the Km turned out to be 560 ± 54 µM and the kcat is 0.000483 ± 1.67e-05 s⁻¹.

B9: full-length aqMutL (Aquifex aeolicus VF5; K79R) (protein)
chain: B7 chain with K79R
As to B9, in data set [2], the Km stood at 610 ± 130 µM and the kcat came to 0.00283 ± 0.000233 s⁻¹.

B10: full-length aqMutL (Aquifex aeolicus VF5; K28E) (protein)
chain: B7 chain with K28E
Turning to B10, in data set [2], the Km stood at 900 ± 73 µM and the kcat came out at 0.00733 ± 0.000367 s⁻¹.

B11: full-length aqMutL (Aquifex aeolicus VF5; K287A) (protein)
chain: B7 chain with K287A
For the protein B11, in data set [2], the Km came to 370 ± 36 µM and the kcat is 0.00767 ± 0.000383 s⁻¹.

B12: aqGyrB NTD (Aquifex aeolicus VF5) (protein)
chain: MKKRQSQTPQEYTAEAIKAVSGLEHVRLRPAMYIGDIGERGLHHLIWEILDNAVDEAVAGYARNISVTIHRDNSVTVEDDGRGIPVDIHPETGKPAVEMVFTMLGAGGKFEKKVYTYSGGLHGVGASVVNALSEWLIVEVYRDGKIYRMAFKRGEVVEPLHVVGETKKRGTKVSFKPDPEIFETTEIKFDIVEKRVRELAYLNPEVKFELTDERLGKHLIYKFDRGIEELVKYLNEGKEPLFKDIIRIQGEKEGVIVDIAFQYVKDYKERIESFVNNIKTVEGGTHVTGFRSGLSKAVIRMAQGLKLAKELKKSFTGEDVREGLTAVVACKVPNPQFEGQTKTKLGNQNVKQIVESITYDFLTSYFEKKRDVLKAIVEKAIEAALAREAAKKAKELV
With B12, in data set [2], the Km amounted to 250 ± 41 µM and the kcat turned out to be 0.0367 ± 0.00217 s⁻¹.
